Measured values as given in US7563585B2, “Methods of assaying compounds that modulate IL-4 receptor-mediated IgE synthesis utilizing a thioredoxin-like 32 kDa protein (TXNL)” (Rigel Pharmaceuticals, Inc., priority 2002, dated 2009).

Legend:
[1] = target: T1, human thioredoxin-like 32 kDa protein (hTXNL) (Homo sapiens, UniProt O43396); experiment: β-galactosidase yeast two hybrid (YTH) interaction assay; assay type: binding
T1 construct: expressed in transfected cells; prey cDNA from a library of the A5T4 reporter line (derived from BJAB B-cells)
T1 sequence (O43396 1-289): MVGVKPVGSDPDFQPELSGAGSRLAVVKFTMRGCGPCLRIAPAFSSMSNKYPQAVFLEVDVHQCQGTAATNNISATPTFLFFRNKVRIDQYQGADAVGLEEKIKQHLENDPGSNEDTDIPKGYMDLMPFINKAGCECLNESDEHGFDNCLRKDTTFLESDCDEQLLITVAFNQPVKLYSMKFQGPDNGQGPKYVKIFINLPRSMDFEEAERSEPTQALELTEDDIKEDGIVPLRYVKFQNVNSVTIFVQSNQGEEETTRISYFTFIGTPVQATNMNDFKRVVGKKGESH
Experimental: Potential binding partners for peptide DR15wt were identified in a β-galactosidase yeast two-hybrid (YTH) assay using peptide DR15wt as bait and a cDNA library constructed from the A5T4 reporter cell line as prey. Binding was assessed by β-galactosidase quantification using BetaFluor (Novagen) as a substrate. A negative interaction control (no cDNA fused downstream of the GAL4 activation domain sequence) was also run. A general outline of the YTH assay is illustrated in FIG. 5A. Following clustering, filtering to remove non-specific bait hits (e.g., GFP and BFP), singletons and clusters recognized by 10 or more cDNA baits (based upon historical YTH assays), and prioritization, 10 prey clones were identified as hits.
Potential targets identified in the YTH assay were reconfirmed as generally outlined in FIG. 6. The cDNA clones identified as hits in the YTH assay were purified and rescreened for interaction with the DR15wt (SEQ ID NO:1) peptide in a YTH assay. The hit clones were also screened in a control assay for interaction with the BFP using a vector (pGBKT7) that contained only the BFP and not the DR15 peptide. At this stage, 8 putative target clones remained.
The interaction of DR15wt (SEQ ID NO:1) peptide and its mutants with the clones identified as potential targets for the peptide DR15wt (SEQ ID NO:1) was then quantified in a galactosidase YTH assay. The YTH assay was performed in the manner described above. A general outline of this YTH assay is illustrated in FIG. 5B. For each clone tested, an interaction profile was developed by comparing the β-galactosidase activity of each mutant to that of the wild type peptide as described above.
The interaction of these IOF and ROF mutants with different polypeptides encoded by the putative target clones were quantified using the YTH assay described above. Based on the YTH assay, for each putative target, a subset of the mutants representing each of the above functional categories, when available, were categorized into the following four interaction categories: (1) reduction of interaction (ROI); (2) loss of interaction (LOT); (3) increase of interaction (101); and (4) interactionally neutral (N), by assessing the binding affinity ratio of the mutant peptide and the wild type peptide (β-gal activity of mutant/wild type) to the putative target. For the YTH interaction assay mutants DR15PE (SEQ ID NO:2), DR15QI (SEQ ID NO:3), and DR15YM (SEQ ID NO:4) as well as originally identified DR15wt (SEQ ID NO:1), were used.

[2] = tested on: IL-4 induced germline ε transcription (ε promoter reporter in A5T4 cells); experiment: Re-infection assay in naïve A5T4 cells (BFP− vs BFP+ populations, FACS of GFP); assay type: cell-based, human; details: A5T4 reporter line
Experimental: The ability of peptide DR15wt (SEQ ID NO:1) to inhibit germline ε transcription was confirmed in naïve cells. Briefly, Phoenix cells were transfected with a retroviral vector encoding a BFP-DR15wt (SEQ ID NO:1) peptide fusion as described in WO 99/58663 and WO 97/27213. Naïve A5T4 cells were infected with the resultant virions and grown for 3 days. The infected cells were stimulated with IL-4 (60 U/mL) and, after 3 days, the cells were assessed by FACS for BFP and GFP. […] The BFP fluorescence data corresponding to the BFP^+ and BFP^− populations are provided in Panel A. The GFP fluorescence data corresponding to the BFP^+ and BFP^− populations are presented in Panel B. The reporter ratio for this purpose is determined as the geometric mean of the GFP fluorescence of the BFP^− population divided by the geometric mean of the GFP fluorescence of the BFP^+ population. The reporter ratio for the DR15 in this re-infection assay was 1.69.
A collection of DR15 mutants was generated by replacing double amino acid residues in the sequence of DR15wt (SEQ ID NO:1) with a different amino acid, typically an alanine, as described in copending application Ser. No. 10/095,659. The functional profiles for the mutants derived from DR15wt (SEQ ID NO:1) was obtained by constructing and screening for activity in the A5T4 reporter cell line in the manner described above. […]

[3] = tested on: endogenous α promoter (ST486 cells); experiment: TAQMAN assay of endogenous germline α promoter transcription in ST486 cells; assay type: cell-based; details: ST486 cells stimulated with TGF-β 40 ng/ml; average of 3 values; p=0.7797
Experimental: The assay was similar to that described in the immediately preceding section, except that ST486 cells (ATCC # CRL-1647) engineered to express the tetracycline-regulated transactivator were infected and the infected cells were stimulated with TGF-β (40 ng/ml; Peprotech). The primers and probe, which are specific for the transcription product driven by the ST486 endogenous α promoter, were as follows (the probe was labeled at the 5′-end with Fam and at the 3′-end with Tamra): […]

Row | Sequence | binding to hTXNL in yeast two hybrid interaction assay [1] | functional category based on reporter ratio compared to DR15wt [2] | endogenous α inhibition ratio [3]
1 | AARCYMRMPPQSLADAQIYS (Peptide generated by a combinatorial library) [DR15PE, dual alanine mutant of DR15wt] | found to bind | IOF (An increase of function mutant (IOF) shows a >50% increase in reporter ratio) | 
2 | PERCAARMPPQSLADAQIYS (peptide generated from combinatorial library) [DR15YM, dual alanine mutant of DR15wt] | found to bind |  | 
3 | PERCYMRMPPQSLADAAAYS (peptide generated from combinatorial library) [DR15QI, dual alanine mutant of DR15wt] | found to bind |  | 
4 | PERCYMRMPPQSLADAQIYS (peptide generated from a combinatorial library) [DR15wt, 20-mer peptide from a random retroviral library, expressed as BFP-peptide fusion] | found to bind |  | 0.98
